Our source for the % cross-reactivity (single-detection antibody) values is patent publication US20180216194A1.

Test in all cases: Bio-Plex bead immunoassay, multiplexed beads, single antigen, single detection antibody
Assay [1] addresses recombinant MIA protein (R&D Systems DuoSet Cat. # DY2050) (human) (UniProt Q16674).
The target of assay [2] is recombinant MIC-1 protein (R&D Systems DuoSet Cat. # DY957) (human) (UniProt Q99988).
For assay [3], the target named is recombinant OPN protein (R&D Systems Cat. # 1433-OP-050) (Homo sapiens (Human)) (UniProt P10451).
Sequence of UniProt P10451 (P10451 other isoform, or with tags, fused parts or gaps limits assumed): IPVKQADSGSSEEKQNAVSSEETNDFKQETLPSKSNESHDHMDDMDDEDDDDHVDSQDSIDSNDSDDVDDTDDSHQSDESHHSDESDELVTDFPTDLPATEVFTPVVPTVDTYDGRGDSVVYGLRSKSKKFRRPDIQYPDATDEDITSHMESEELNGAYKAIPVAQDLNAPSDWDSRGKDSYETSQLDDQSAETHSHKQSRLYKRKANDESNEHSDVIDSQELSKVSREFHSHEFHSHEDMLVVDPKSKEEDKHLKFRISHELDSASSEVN
Assay [4] has as its target recombinant HSP27 protein (R&D Systems DuoSet Cat. # DY1580) (human) (UniProt P04792).
Sequence of UniProt P04792 (P04792 whole entry): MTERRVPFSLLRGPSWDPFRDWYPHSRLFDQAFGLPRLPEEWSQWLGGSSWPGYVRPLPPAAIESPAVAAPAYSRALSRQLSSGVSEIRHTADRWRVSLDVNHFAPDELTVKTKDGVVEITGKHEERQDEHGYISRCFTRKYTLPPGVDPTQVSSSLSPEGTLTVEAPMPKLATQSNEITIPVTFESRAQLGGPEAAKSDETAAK
Assay [5] has as its target recombinant SPON1 protein (R&D Systems Cat. # 3135-SP/CF) (Homo sapiens (Human)) (UniProt Q9HCB6).
Sequence of UniProt Q9HCB6 (Q9HCB6 29-807 limits assumed): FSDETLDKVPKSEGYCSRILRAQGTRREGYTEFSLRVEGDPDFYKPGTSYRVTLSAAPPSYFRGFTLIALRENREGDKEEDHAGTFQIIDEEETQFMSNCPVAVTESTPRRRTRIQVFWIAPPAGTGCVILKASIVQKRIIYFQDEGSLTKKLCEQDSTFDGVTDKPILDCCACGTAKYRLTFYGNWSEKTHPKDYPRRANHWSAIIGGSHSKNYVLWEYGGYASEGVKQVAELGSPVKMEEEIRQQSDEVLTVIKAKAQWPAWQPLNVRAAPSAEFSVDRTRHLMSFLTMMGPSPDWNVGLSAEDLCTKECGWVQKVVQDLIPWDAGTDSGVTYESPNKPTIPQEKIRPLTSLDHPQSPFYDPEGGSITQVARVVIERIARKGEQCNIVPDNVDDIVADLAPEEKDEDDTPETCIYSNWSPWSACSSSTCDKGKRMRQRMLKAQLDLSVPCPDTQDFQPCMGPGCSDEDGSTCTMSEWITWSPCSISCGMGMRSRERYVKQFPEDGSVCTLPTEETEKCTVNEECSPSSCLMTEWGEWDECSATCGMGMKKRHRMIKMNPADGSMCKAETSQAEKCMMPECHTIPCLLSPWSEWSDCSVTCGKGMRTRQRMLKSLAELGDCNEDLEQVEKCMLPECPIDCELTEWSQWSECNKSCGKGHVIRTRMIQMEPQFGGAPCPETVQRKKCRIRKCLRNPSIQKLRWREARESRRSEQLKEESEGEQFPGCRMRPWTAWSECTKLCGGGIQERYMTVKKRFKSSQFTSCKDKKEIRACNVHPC
The target in assay [6] is recombinant CEACAM-1 protein (R&D Systems DuoSet Cat. # DY2244) (human) (UniProt P13688).
Sequence of UniProt P13688 (P13688 35-428 limits assumed): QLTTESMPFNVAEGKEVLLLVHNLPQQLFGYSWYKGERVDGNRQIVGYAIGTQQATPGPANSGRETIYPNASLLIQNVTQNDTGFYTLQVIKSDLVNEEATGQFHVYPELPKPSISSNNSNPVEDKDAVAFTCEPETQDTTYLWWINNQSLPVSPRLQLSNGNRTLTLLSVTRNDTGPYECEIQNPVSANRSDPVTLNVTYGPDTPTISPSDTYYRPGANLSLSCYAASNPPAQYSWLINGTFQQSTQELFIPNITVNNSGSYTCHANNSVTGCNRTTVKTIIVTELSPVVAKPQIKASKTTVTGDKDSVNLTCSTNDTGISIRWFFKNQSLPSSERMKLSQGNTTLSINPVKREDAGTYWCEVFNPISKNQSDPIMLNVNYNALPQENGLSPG

Sequence of UniProt Q16674 (Q16674 25-131 limits assumed): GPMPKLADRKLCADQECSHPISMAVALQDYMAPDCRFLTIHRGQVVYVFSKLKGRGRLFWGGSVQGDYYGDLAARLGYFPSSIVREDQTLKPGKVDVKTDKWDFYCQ
Sequence of UniProt Q99988 (Q99988 197-308 limits assumed): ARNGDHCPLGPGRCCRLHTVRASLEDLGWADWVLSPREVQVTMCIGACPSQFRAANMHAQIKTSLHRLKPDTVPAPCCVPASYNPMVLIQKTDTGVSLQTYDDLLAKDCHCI

Consider “CEACAM-1 capture antibody (R&D Systems DuoSet Cat. # DY2244, mouse)”, for which the % cross-reactivity (single-detection antibody) in assay [1] stood at 0.2%; in assay [2] it was 0%; in assay [3], 0%; in assay [4], 0%; in assay [5], 0%.

On to “MIA capture antibody (R&D Systems DuoSet Cat. # DY2050, mouse)”, for which the % cross-reactivity (single-detection antibody) worked out at 0.1% in assay [2]; 0.4% in assay [6]; 0.3% in assay [3]; 0.1% in assay [4]; 0.3% in assay [5].

For “MIC-1 capture antibody (R&D Systems DuoSet Cat. # DY957, mouse)”, the % cross-reactivity (single-detection antibody) in assay [1], in assay [6], in assay [3], in assay [4] and in assay [5] was 0% each time.

For “OPN capture antibody (R&D Systems Cat. # MAB14332, mouse)”, the % cross-reactivity (single-detection antibody) in assay [1], in assay [2], in assay [6], in assay [4] and in assay [5] was 0% each time.
